Laboratory results taken from patent US8444970B2, “Compositions and methods for treating ocular diseases and conditions” (Lpath, Inc., priority 2006, dated 2013).

Columns and labels:
[1] = system: murine cardiac fibroblasts; experiment: S1P-stimulated cardiac fibroblast migration, scratch assay; format: cell-based, mouse; details: 1 ug/mL antibody, 12-24 hr
Experimental: (§1) FIG. 7. […] See Example 7, below, for experimental details. […] In these experiments, fibroblasts were serum-starved and then treated with 0, 0.1, 0.5, or 1 μM S1P+/−1 μg/mL SPHINGOMAB for 12-24 hr. […] SPHINGOMAB neutralized each of these S1P effects. SPHINGOMAB reduced perivascular fibrosis in vivo in a murine model of a permanent myocardial infarction (E).
(§2) S1P makes profound contributions to wound healing by activating fibroblast migration, proliferation and collagen production; SPHINGOMAB neutralizes these effects. Several studies using multiple types of fibroblasts confirm S1P's ability to promote wound healing: 1) S1P increased Swiss-3T3 fibroblast proliferation as measured by ^3H-thymidine incorporation using standard methods (FIG. 7A); 2) S1P promoted the migration of cardiac fibroblasts in a standard scratch wound healing assay. […] In each of these assays, SPHINGOMAB neutralized S1P's. It is anticipated that ocular fibroblasts would respond similarly to S1P and SPHINGOMAB.

HUVECs = experiment: HUVEC tube formation on Matrigel; format: cell-based, human; details: co-incubated with S1P, GF-reduced Matrigel, 6 hr
Experimental: FIG. 5. FIG. 5 has two panels, A and B. In panel A, S1P is shown to promote neovascularization through induction of HUVECs tube formation and migration, which is reduced by SPHINGOMAB. […] The number of cells that migrated to the Matrigel membrane were counted in five independent fields.
Experiments were performed as described by Visentin et al. (Cancer Cell 2006 March; 9(3):225-38).

[2] = Competitive ELISA for specificity / cross-reactivity to bioactive lipids; format: binding; details: for recognition of ceramide-1-phosphate (C1P): competitor lipid C1P; for cross-reactivity to lysophosphatidic acid (LPA): competitor lipid LPA; for cross-reactivity with sphingosylphosphorylcholine (SPC): competitor lipid SPC
Experimental: Screening of serum and cell supernatant for S1P-specific antibodies was by direct ELISA using a thiolated S1P analog as the antigen. A standard ELISA was performed, as described below, except that 50 ul of sample (serum or cell supernatant) was diluted with an equal volume of PBS/0.1% Tween-20 (PBST) during the primary incubation. ELISAs were performed in 96-well high binding ELISA plates (Costar) coated with 0.1 μg of chemically-synthesized thiolated-S1P conjugated to BSA in binding buffer (33.6 mM Na2CO3, 100 mM NaHCO3; pH 9.5). The thiolated-S1P-BSA was incubated at 37° C. for 1 hr. at 4° C. overnight in the ELISA plate wells. The plates were then washed four times with PBS (137 mM NaCl, 2.68 mM KCl, 10.14 mM Na2HPO4, 1.76 mM KH2PO4; pH 7.4) and blocked with PBST for 1 hr. at room temperature. For the primary incubation step, 75 uL of the sample (containing the S1P to be measured), was incubated with 25 uL of 0.1 ug/mL anti-S1P mAb diluted in PBST and added to a well of the ELISA plate. Each sample was performed in triplicate wells. Following a 1 hr. incubation at room temperature, the ELISA plates were washed four times with PBS and incubated with 100 ul per well of 0.1 ug/mL HRP goat anti-mouse secondary (Jackson Immunoresearch) for 1 hr. at room temperature. Plates were then washed four times with PBS and exposed to tetramethylbenzidine (Sigma) for 1-10 minutes. The detection reaction was stopped by the addition of an equal volume of 1M H2SO4. Optical density of the samples was determined by measurement at 450 nm using an EL-X-800 ELISA plate reader (Bio-Tech).
For cross reactivity, a competitive ELISA was performed as described above, except for the following alterations. The primary incubation consisted of the competitor (S1P, SPH, LPA, etc.) and a biotin-conjugated anti-S1P mAb. Biotinylation of the purified monoclonal antibody was performed using the EZ-Link Sulfo-NHS-Biotinylation kit (Pierce). Biotin incorporation was determined as per kit protocol and ranged from 7 to 11 biotin molecules per antibody. The competitor was prepared as follows: lipid stocks were sonicated and dried under argon before reconstitution in DPBS/BSA [1 mg/ml fatty acid free BSA (Calbiochem) in DPBS (Invitrogen 14040-133)]. Purified anti-S1P mAb was diluted as necessary in PBS/0.5% Triton X-100. Competitor and antibody solutions were mixed together so to generate 3 parts competitor to 1 part antibody. A HRP-conjugated streptavidin secondary antibody (Jackson Immunoresearch) was used to generate signal.
i. Specificity. The humanized variants were tested for specificity in a competitive ELISA assay (FIG. 1) against S1P and several other biolipids. This assay has the added benefit to allow for epitope mapping.

[3] = system: neovascularization of VEGF- or bFGF-containing Matrigel plugs; experiment: In vivo Matrigel plug assay, bFGF- or VEGF-supplemented plugs, neovascularization; set-up: species or system mouse; details: 25 mg/kg i.p. every 48 hrs, 10 days
Experimental: Endogenous S1P from the blood and surrounding tissue could supply a wound with pro-angiogenic stimuli. The ability of SPHINGOMAB to reduce endogenous S1P in a wound was investigated. Optimally stimulated plugs (Matrigel supplemented with 0.5 μg/mL bFGF or […] VEGF) were implanted into mice. Mice received i.p. injections of 25 mg/kg SPHINGOMAB or saline every 48 hrs starting 1 day prior to Matrigel implantation. Each treatment group (Matrigel, Matrigel plus GF or Matrigel plus GF and administered SPHINGOMAB) consisted of a minimum of 6 mice. After 10 days, the mice were treated with heparin, injected with Isolectin B4-FITC, the plugs excised, embedded in OCT freezing medium and sectioned.

WI-38 lung fibroblasts = experiment: S1P-induced differentiation into myofibroblasts (alpha-SMA immunoblot); format: cell-based; details: 1 ug/mL antibody, 12-24 hr
Experimental: as §1, §2

B1: LT1002: murine anti-S1P monoclonal antibody, IgG1 kappa, hybridoma clone 306D326.26 (antibody, listed as Mus sp., V domains shown)
VH: QAHLQQSDAELVKPGASVKISCKVSGFIFIDHTIHWMKQRPEQGLEWIGCISPRHDITKYNEMFRGKATLTADKSSTTAYIQVNSLTFEDSAVYFCARGGFYGSTIWFDFWGQGTTLTVS
VL: ETTVTQSPASLSMAIGEKVTIRCITTTDIDDDMNWFQQKPGEPPNLLISEGNILRPGVPSRFSSSGYGTDFLFTIENMLSEDVADYYCLQSDNLPFTFGSGTKLEIK
[1]
  S1P-promoted cardiac fibroblast migration: neutralized
HUVECs
  formation of capillary-like structures: failed to form capillary-like structures
[2]; In vitro activity, Table 7
  Specificity (ELISA): High
[2]; listed as SPHINGOMAB
  recognition of ceramide-1-phosphate (C1P): did not recognize
  cross-reactivity to lysophosphatidic acid (LPA): no cross-reactivity
  cross-reactivity with sphingosylphosphorylcholine (SPC): to a lesser extent
[2]; listed as anti-S1P mAb
  recognition of ceramide-1-phosphate (C1P): no antibody binding was observed
  cross-reactivity to lysophosphatidic acid (LPA): no binding
  cross-reactivity with sphingosylphosphorylcholine (SPC): somewhat reduced
[2]; competitor lipid DH-S1P
  cross-reactivity with dihydrosphingosine-1-phosphate (DH-S1P): did cross react
[2]; competitor lipid DH-SPH
  recognition of dihydrosphingosine (DH-SPH): did not recognize
[2]; competitor lipid PE
  recognition of phosphatidyl ethanolamine (PE): did not recognize
[2]; competitor lipid PS
  recognition of phosphatidyl serine (PS): did not recognize
[2]; competitor lipid SM
  recognition of sphingomyelin (SM): did not recognize
[2]; competitor lipid SPH
  cross-reactivity to sphingosine (SPH): no cross-reactivity
[3]
  decrease in neovascularization of VEGF-containing plugs vs saline-treated animals: 5 fold
  decrease in neovascularization of bFGF-containing plugs vs saline-treated animals: 8.5 fold
WI-38 lung fibroblasts
  S1P-induced differentiation of WI-38 fibroblasts into myofibroblasts: neutralized
